Patent US20200010567A1 (NEURIMMUNE, published 2020)

T1: GA10: H-(GA)10HHHHHH-NH2 (C-terminal amide)
T1 peptide: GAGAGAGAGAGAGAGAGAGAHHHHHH

T2: GA6: H-(GA)6HHHHHH-NH2
T2 peptide: H-GAGAGAGAGAGAHHHHHH-NH2

T3: (GA)15: H-CHHHHHH(GA)15-OH
T3 construct: synthetic, not coupled to BSA; also called poly-GA DPR protein peptide
T3 peptide: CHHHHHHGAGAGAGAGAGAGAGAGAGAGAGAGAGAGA

T4: GA20: H-(GA)20HHHHHH-NH2 (C-terminal amide)
T4 peptide: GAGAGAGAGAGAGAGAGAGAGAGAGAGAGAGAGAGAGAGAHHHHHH

B1: NI-308.45C2 (antibody, V domains shown)
VH: QLQLQESGPGLVKPSQILSLTCAISGDSVFSNSAAWNWIRQSPSRGLEWLGRTYYRSKWDNDYAPSVKSRISINPDTSKNQFSLQLNSVTPEDTAVYYCAREVAYCGGDCYSVSFDYWGQGTLVTVSS
VL: not shown
notes: Recombinant complete human IgG1, kappa
B2: NI-308.6B11 (antibody, V domains shown)
VH: EVQLVQSGAEVKRPGASVKVSCKVSGYTLTELSMHWVRQAPGKGLEWMGGFDPEDGETVYAQKFQGRVTMTEDTSTDTAYMELSSLRSEDTALYHCATYGSSWHWNEGNEGSYYFDYWGQGTLVTVSS
VL: CDIQMTQSPSSLSASVGDRVTITCQASQDISIYLNWYQQKPGKAPKLLIYDASNLETGVPSRFSGSGSGTDFTFTISGLQPEDVARYYCQQYDDLPITFGQGTRLEIK
notes: as for B1
B3: NI-308.28G1 (antibody, V domains shown)
VH: QVQLQESGPRLVKPSETLSLTCTVAGGSVNSYYWTWIQQSPGKGLEWLGRIYIAGRTNYNPSLTSRIALSVDTSRNQLSLKLTSVTAADTAIYYCARWGAESGDYYYGVDVWGPGTLVTVSS
VL: EIVMTQSPLSLPVTPGEPASISCKSSEGLLHSNGYTYLDWYLQKPGQAPQLLIFLASNRAAGVPDRFSGSGSGTDFTLKISRVEAEDVGVYYCMQAIQSPWTFGPGTKVEIK
notes: as for B1
B4: NI-308.5G2 (antibody, V domains shown)
VH: EVQLVQSGADLRNPGASVTVSCTASGYHFADNAINWLRQAPGQRLEWMGWINIYSGNTKYSQNFQGRVTFTRNTSASTAFMHLRSLRSEDTAVYFCARDPDSSGYYLPYFDYWGQGTLVTVSS
VL: DIQLTQSPDSLTLSLGERATINCKSSQSVFYNSNNKNYLAWYQQKPGQPPKLLMYWASTRESGVTDRFSGSGSGTDFTLTITNLQAEDVAVYYCQQFYSSPLTFGGGTKVEIK
notes: as for B1
B5: NI-308.15O7 (antibody, V domains shown)
VH: QVQLVESGGGVVQPGRSLRLSCAASGFTFSNHAMHWVRQAPGKGLEWVAVISYDGENTYYADSIEGRFTISRDNFKNTLFLQMYSLTADDTAMYFCARGGRRGHFTSYYLDYWGQGTLVTVSS
VL: CDIQMTQSPSSLSASVGDRVTITCRASQNIDKYLNWYQQIPGKAPKLLIYAASSLHSGVPSRFSGSGSGTDFSLTISSLQPEDFAIYYCQQSYSSFRTFGQGTKLEIK
B6: NI-308.18F7 (antibody, V domains shown)
VH: QVQLQESGPGLVKPSETLSVTCTVSGGSINDYYWNWIRQPAGKGLEWIGRIYASGTINYNPSLQSRVTMSIDTSKNQFSLDLISVSAADTAVYYCARWGQVVGDYYYGMDVWGQGTTVTVSS
VL: EIVLTQSPLSLSVTPGEPASISCKSSQSLQHTNGYNYLDWYLLKPGQSPQLLIFLTSNRASGVPDRFSGSGSGTNFTLKISRVEAEDVGVYYCMEGIQLWTFGQGTKLEIK
notes: as for B1

Legend:
GA10: H-(GA)10HHHHHH-NH2 [1] = molecular target: T1, GA10: H-(GA)10HHHHHH-NH2; experiment: indirect ELISA, coated His-tagged peptide
Text: (§1) In brief, dipeptide repeat proteins were synthesized and purified by Schafer-N (Copenhagen, Denmark): GA₂₀: H-(GA)₂₀HHHHHH-NH₂; GA₁₀: H-(GA)₁₀HHHHHH-NH₂; GA₆: H-(GA)₆HHHHHH-NH₂; GA₅: H-(GA)₅HHHHHH-NH₂; GA₄: H-(GA)₄HHHHHH-NH₂; GA₃: H-(GA)₃HHHHHH-NH₂; GA₂: H-(GA)₂HHHHHH-NH₂; GP₂₀: H-(GP)₂₀HHHHHH-NH₂; GP₁₀: H-(GP)₁₀HHHHHH-NH₂; GP₆: H-(GP)₆HHHHHH-NH₂; GP₅: H-(GP)₅HHHHHH-NH₂; GP₄: H-(GP)₄HHHHHH-NH₂; GP₃: H-(GP)₃HHHHHH-NH₂; GP₂: H-(GP)₂HHHHHH-NH₂. GR₂₀: H-(GR)₂₀HHHHHH-NH₂; GR₁₀: H-(GR)₁₀HHHHHH-NH₂; GR₆: H-(GR)₆HHHHHH-NH₂; GR₅: H-(GR)₅HHHHHH-NH₂; GR₄: H-(GR)₄HHHHHH-NH₂; GR₃: H-(GR)₃HHHHHH-NH₂; GR₂: H-(GR)₂HHHHHH-NH₂; PA₂₀: H-(PA)₂₀HHHHHH-NH₂; PA₁₀: H-(PA)₁₀HHHHHH-NH₂; PA₆: H-(PA)₆HHHHHH-NH₂; PA₅: H-(PA)₅HHHHHH-NH₂; PA₄: H-(PA)₄HHHHHH-NH₂; PA₃: H-(PA)₃HHHHHH-NH₂; PA₂: H-(PA)₂HHHHHH-NH₂; PR₂₀: H-(PR)₂₀HHHHHH-NH₂; PR₁₀: H-(PR)₁₀HHHHHH-NH₂; PR₆: H-(PR)₆HHHHHH-NH₂; PR₅: H-(PR)₅HHHHHH-NH₂; PR₄: H-(PR)₄HHHHHH-NH₂; PR₃: H-(PR)₃HHHHHH-NH₂; PR₂: H-(PR)₂HHHHHH-NH₂. 96-well microplates (Corning Incorporated, Corning, USA) were coated with dipeptide repeat protein peptides at a concentration of 50 μg/ml in coating buffer (15 mM Na₂CO₃, 35 mM NaHCO₃, pH 9.42). Non-specific binding sites were blocked for 1 h at room temperature with PBS/0.1% Tween®-20 containing 2% BSA (Sigma-Aldrich, Buchs, Switzerland). Primary antibodies were diluted to the indicated concentrations and incubated 1 h at room temperature, followed by incubation with a donkey anti-human IgG Fcγ-specific antibody conjugated with HRP (Jackson ImmunoResearch Laboratories, Inc., West Grove, USA). Binding was determined by measurement of HRP activity in a standard colorimetric assay. EC₅₀ values were estimated by non-linear regression using GraphPad Prism software (San Diego, USA).

GA6: H-(GA)6HHHHHH-NH2 = molecular target: T2, GA6: H-(GA)6HHHHHH-NH2; experiment: indirect ELISA, coated His-tagged peptide
Text: as §1

[2] = molecular target: T3, (GA)15: H-CHHHHHH(GA)15-OH; experiment: indirect ELISA, coated uncoupled peptide
Experimental: In brief, dipeptide repeat proteins were synthesized and purified by Schafer-N(Copenhagen, Denmark): (GA)₁₅: H-CHHHHHH(GA)₁₅-OH; (GP)₁₅: H-C(GP)₁₅-OH; (GR)₁₅: H-C(GR)₁₅-OH; (PA)₁₅: H-C(PA)₁₅-OH; (PR)₁₅: H—C(PR)₁₅-OH. 96-well microplates (Corning Incorporated, Corning, USA) were coated with dipeptide repeat protein peptides at a concentration of either 5 μg/ml or 20 μg/ml in coating buffer (15 mM Na₂CO₃, 35 mM NaHCO₃, pH 9.42). Non-specific binding sites were blocked for 1 h at room temperature with PBS/0.1% Tween®-20 containing 2% BSA (Sigma-Aldrich, Buchs, Switzerland). Primary antibodies were diluted to the indicated concentrations and incubated for 1 h at room temperature, followed by incubation with a donkey anti-human IgG Fcγ-specific antibody conjugated with HRP (Jackson ImmunoResearch Laboratories, Inc., West Grove, USA). Binding was determined by measurement of HRP activity in a standard colorimetric assay. EC₅₀ values were estimated by non-linear regression using GraphPad Prism software (San Diego, USA). The binding specificity and EC₅₀ of human-derived antibodies for C9orf72 dipeptide repeat protein peptides (GA)₁₅, (GP)₁₅, (GR)₁₅, (PA)₁₅ and (PR)₁₅ were determined by indirect ELISA.

GA10: H-(GA)10HHHHHH-NH2 [3] = molecular target: T1, GA10: H-(GA)10HHHHHH-NH2; experiment: sandwich ELISA, peptide captured by anti-His antibody
Text: (§2) In brief, His-tagged dipeptide repeat protein peptides were synthesized and purified by Schafer-N(Copenhagen, Denmark): GA₂₀: H-(GA)₂₀HHHHHH-NH₂; GA₁₀: H-(GA)₁₀HHHHHH-NH₂; GA₆: H-(GA)₆HHHHHH-NH₂; GA₅: H-(GA)₅HHHHHH-NH₂; GA₄: H-(GA)₄HHHHHH-NH₂; GA₃: H-(GA)₃HHHHHH-NH₂; GA₂: H-(GA)₂HHHHHH-NH₂; GP₂₀: H-(GP)₂₀HHHHHH-NH₂; GP₁₀: H-(GP)₁₀HHHHHH-NH₂; GP₆: H-(GP)₆HHHHHH-NH₂; GP₅: H-(GP)₅HHHHHH-NH₂; GP₄: H-(GP)₄HHHHHH-NH₂; GP₃: H-(GP)₃HHHHHH-NH₂; GP₂: H-(GP)₂HHHHHH-NH₂. 96-well microplates (Corning Incorporated, Corning, USA) were coated with monoclonal mouse anti-His tag antibody (Takara Bio Europe/Clontech, Saint-Germain-en-Laye, France) at a concentration of 10 μg/ml in coating buffer (15 mM Na₂CO₃, 35 mM NaHCO₃, pH 9.42) overnight at 4° C. Non-specific binding sites were blocked for 1 h at room temperature with PBS/0.1% Tween®-20 containing 2% BSA (Sigma-Aldrich, Buchs, Switzerland). After a washing step, His-tagged C9orf72 DPR protein peptides at equal concentration of either 1 μM or 5 μM in PBS (pH 7.4) were added for target-trapping by the anti-His tag antibody for 1 h at room temperature. […] Antibody binding to DPR protein peptides was detected by a donkey anti-human IgG Fcγ-specific antibody conjugated with HRP at 1:5000 dilution (Jackson ImmunoResearch Laboratories, Inc., West Grove, USA) for 1 h at RT. Binding was determined by measurement of HRP activity in a standard colorimetric assay. EC₅₀ values were estimated by non-linear regression using GraphPad Prism software (San Diego, USA).

GA20: H-(GA)20HHHHHH-NH2 = molecular target: T4, GA20: H-(GA)20HHHHHH-NH2; experiment: as above
Text: as §2

Binder	EC50 (GA10: H-(GA)10HHHHHH-NH2 [1])	EC50 (GA6: H-(GA)6HHHHHH-NH2)	EC50 [2]	EC50 (GA10: H-(GA)10HHHHHH-NH2 [3])	EC50 (GA20: H-(GA)20HHHHHH-NH2)
B1	7.6 nM	> 200 nM	–	–	–
B2	27.7 nM	> 200 nM	~38.4 nM	–	–
B3	0.9 nM	–	1.1 nM	0.46 nM	0.4 nM
B4	5.7 nM	> 200 nM	~15.3 nM	–	–
B5	–	–	0.48 nM	> 400 nM	9 nM
B6	0.78 nM	> 200 nM	1.5 nM	0.34 nM	0.45 nM
